From the nanobody polyreactivity screen of Harvey et al. (2022)

Assay: yeast display, Sf9 membrane polyspecificity reagent, FACS + sequencing; frameworks hold sequencing errors
Procedure, shortened: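 Galactose induction of a Saccharomyces cerevisiae BJ5465 synthetic nanobody display library ran 36–48 hours. The cells were then stained for 1 hour at 4 °C with 10% biotinylated, detergent-solubilized Sf9 membrane reagent, pulled down on streptavidin microbeads and FACS-sorted into low and high (top ~1%) gates on expression and reagent-binding fluorescence. Labels for polyreactivity follow the gate of origin.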

Question: With “QVQLVESGGGLVQAGCSLRLSCAASGFTFAGNAMGWYRQAPGKERELVAAISRRGGSTYYADSVKGRFTISRDNAKNTVYLKMNSLKPEDNAVYYCAAVYRYDYDYWGQGNQVTVSS” as the sequence, how does the “polyreactivity (PSR sort gate)” value read?
Answer: high polyreactivity

Question: With “QVQLVESGGGLVQAGGSIRLTSAASGRTFVTHPMGWYRQAPGKDRELVAAISRSGSSTYYADSVKGRFTISRDNAKNSVYLQMNSLKAADTAVYYFARVRSRATEVVEYDYWGQGTQVTVSS” as the sequence, how does the “polyreactivity (PSR sort gate)” value read?
Answer: high polyreactivity

Question: Which “polyreactivity (PSR sort gate)” value does the source give for “QVQIVESGGGLVQAGGSLRLSCADSGFISSHYAMGWYRQAPGKERELVAAISTNGGSTYYADSVKGRFTISRDNAKNTVYLQMNSLKPEDTSVYYCAAEFAVSFYWSWLGQDYNYWGQGTQVTVSS” here?
Answer: high polyreactivity

Question: Which “polyreactivity (PSR sort gate)” value does the source give for “QVQLVESGGGLDQAGGSLRLSCAASGFIFTVYAMGWYRQAPGKEREVVAAISSGGSTYYADSVKGRFTISRDNAKNTVYLQMNSLKPEDTADYYCAAQPSYRYYKSYDSWGQGTQVTVSS” here?
Answer: high polyreactivity

Question: For “QVQLVESGGGLVQAGGSLRLSCAASGFIFSRYAMGWARQAPGKERELVAAIRFSGSMTYYADSVKGRFTISRDTAKNTVYLQMNSLKPEDTAVYYCAAALTYFKRVYYWGQGTQVTVSS”, which “polyreactivity (PSR sort gate)” value is on record?
Answer: high polyreactivity

Question: For “QVQLVESAGGLVQAGGSLSLSCAASGSILSRYAMGWYRQAPGKERELVAAINWSGSSTYYADSVKGRFTISRDNAKNTVYLQMNSLKPEDTAVYYCAKLYVTPRRLPYDYWGQGTQVPVSS”, which “polyreactivity (PSR sort gate)” value is on record?
Answer: high polyreactivity

Question: For “QVQLVESGGGLVQAGGSLRLSCAASGSTFQRYTMGWYRQPPGKERELVAAISQSGGRTYYADSVKGRFTISRDNAKNTVYLQMNSLKPEDTAVYYCNAASRTKFDYWGQGTQVTVTS”, which “polyreactivity (PSR sort gate)” value is on record?
Answer: high polyreactivity

Question: For “QVQLVESGGGLVHAGGSLRLSCAASGRTFWSYSMGWYRQAPGKEREFVAAISRRGGITYYADSVKGRFTISRDNAKTTVYLQMNSLKPEDTAVFYCAKGALSYYGGQVKYDYWGQGTQVTVSS”, which “polyreactivity (PSR sort gate)” value is on record?
Answer: high polyreactivity

Question: Which “polyreactivity (PSR sort gate)” value does the source give for “QVQLVESGGGLVQAGGSLRLSCAASGSIFLYNAMGWYRQAPGKERELVADISWSGGSTYYADSVKGRFTISRDNAKNTVYLQMNSLKPEDTAVYYCNAVVYWFSTSYVYTYDYWGQGTQVTVSS” here?
Answer: high polyreactivity

Question: Which “polyreactivity (PSR sort gate)” value does the source give for “QVQLVESGGGLVQAGGSLRLSCAASGSISGSYAMGWYRQAPGKERELVASITTSGGGTYYADSVKGRFTISRDNAKNTVYLQMNSLKPEDTAVYYCAVEYGYPYAGLDYWGQGTQVTVSS” here?
Answer: low polyreactivity

Question: Which “polyreactivity (PSR sort gate)” value does the source give for “QVQLVESGGGLVQAGGSLRLSCAASGRNFKYYAMGWYRPAPGKERELVAAISWSGGSTYYADSVKGRFTISRDNAKNTVYLQMNSLKPEDTAVYYCATYGGLTKFRLAYDYWGQGTQVTVSS” here?
Answer: high polyreactivity

Question: With “QVQLVESGGGLVQAGGSLRLSCAASGRIFYSNAMGWYRQAPGKERELVAAISGSTDSTYYADSVKGRFTISRDNAKNTVYLQMNSLKPEDTAVYYCAAADYWFYYGYYLTMDYWGQGTQVTVSS” as the sequence, how does the “polyreactivity (PSR sort gate)” value read?
Answer: low polyreactivity

Question: With “QVHLVESCGGLVQARGSLRLSCAASGSTIDYNSMGWYRLAPWKEREMVATITSSVGSTYYEDSVKGRYTISRDNAKNTVDLHMNCVKPEDTAVYYCAADYDYPDYYAPSWRRYTYWGQGTQVTVSS” as the sequence, how does the “polyreactivity (PSR sort gate)” value read?
Answer: low polyreactivity

Question: Which “polyreactivity (PSR sort gate)” value does the source give for “QVQLVESGGGLVQAGGSLRLSCAASGRIFKSYAMGGYRHAPGKERELVAAISSGDDTYYADSVKGRFTISRDNAKNTVYLQMNSLKQEDTAVYYCAADYWGWIYLYGDYLVDYWGQGTQVTVSS” here?
Answer: low polyreactivity

Question: For “QVQLVESGGGLVQAGGSLRLSCAASGRTFGRNAMGWYRQAPGKERELVAAISSSGASTYYADSVKGRFTISRDNAKNTVYLQMNSLKPEDTAVYYCAKDVWGSRYAYDYWGQGTQVTVSS”, which “polyreactivity (PSR sort gate)” value is on record?
Answer: low polyreactivity

Question: For “QVQLVESGGGLVQAGGSLRLSCAASGSTFYRNAMGWYRQAPGKERELVAAISGSGARTYYADSVKGRFTISRDNAKNTVYLQMNSLKPEDTAVYYCNAKRYFRNHFRTGGMYYWGQGTQVTVSS”, which “polyreactivity (PSR sort gate)” value is on record?
Answer: high polyreactivity

Question: With “QVQLVESGGGLVQAGGSLRLSCAASGRILSYYAMGWYRQAPGKETELVATISASGGSTYYADSVKGRFTISRDNAKNTVYLQMNSLKPEDTAVYYCAAARVPAYYLRYLYRTTYDYWGQGTQVTVSS” as the sequence, how does the “polyreactivity (PSR sort gate)” value read?
Answer: high polyreactivity

Question: For “QVQLVESGGGLVQAGGSLRLSCAASGSIFTFYAMGWYRQAPGKERELVAAISWSGGSTYYADSVKGRFTISRDNAKNTVYLQMNSLKPEDTAVYYCAARYYVYSSRAQYHHYDYWGQGTQVTVSS”, which “polyreactivity (PSR sort gate)” value is on record?
Answer: high polyreactivity

Question: Which “polyreactivity (PSR sort gate)” value does the source give for “QVQLVESRGGLVQAGGSLRLSCAASGRTFQYYAKGWYRQERGKVRELVAAISGSTSRTYYADSVKGRFTISRDNAKNTVYLQMNSLKPEDTAVSYCAAALYRLYITSYYYWGPGTQVTVSS” here?
Answer: high polyreactivity

Question: For “QVQLVESGGGLVQAGGSLRLICAASGLTFVPNAMGWYRQAPGKERELVAGITSAGSTYYADSVKGRFTISRDNAKNTVYLQMNSLKPEDTAVYYCAKQFYRGFRYGYWGQGTQVTVSS”, which “polyreactivity (PSR sort gate)” value is on record?
Answer: high polyreactivity

Question: With “QVQLVESGGGLVQAGGSLRLSCAASGSTFFGYDMGWYRQAPGKERELVASINSGGSTYFADSEKGRFTISRDNPKNTVYLQMNSLKPEDTAVYYCAARPSYLYPYDRTGEYDYWGQGTQVTVSS” as the sequence, how does the “polyreactivity (PSR sort gate)” value read?
Answer: high polyreactivity

Question: With “QVQLVESAGGLVQAGGSLRLSCAASGSTFDYYAMGWYRQAPGKERELVAAISRTGGRTYYADSVKGRFTISRDNAKNTVYLQMNSLKPEDTAVYYCATRNGRQYSVSYRYYYWGQGTQVTVSS” as the sequence, how does the “polyreactivity (PSR sort gate)” value read?
Answer: low polyreactivity

Question: Which “polyreactivity (PSR sort gate)” value does the source give for “QVQLVESGGGLVQAGGSLRLSCAASGRTFTFNAMGWYRQAPGKERELVARIDWRGITYADSVKGRFTISRDNAKNTVYLQMNSLKPEDTAVYYCAAVWLHISYYGKYDYWGQGTQVTVSS” here?
Answer: low polyreactivity

Question: For “QVQLVESGGCLVQAGRSLRLRCAASARTIGSNAMGCYRQAPGKARELVDAISSRGGSTYYADSVKGRITISRDNAKNTVYLQMNSLYPEDTAVYYCDSEYYPHTTYLSDNWGQGTQETVSS”, which “polyreactivity (PSR sort gate)” value is on record?
Answer: high polyreactivity

Question: With “QVELVASGGGLVQAGGSLRIRCAASGGIFDGNAKGWYRQAPGKEREMVAAISSGGITKYAASVKGRFTISRDNAQYTVYLQMNSLKPEDSAVYYCAASWDRYRFIRNDYWGQGTQVTVSS” as the sequence, how does the “polyreactivity (PSR sort gate)” value read?
Answer: high polyreactivity

Question: Which “polyreactivity (PSR sort gate)” value does the source give for “QVQLVESGGGLVQAGGSLRLSCAASGITFYIYAMGWYRQAPGKERELVAAISDDGSTHYADSVKGRFTISRDNAKNTVYLHMNSLKPEDTAVYYCNADYYWFFDFFDYDYWGQGTQVTVSS” here?
Answer: low polyreactivity

Question: Which “polyreactivity (PSR sort gate)” value does the source give for “QVQLVESGGGLVQAGGSLRLSCAASGRTFNVYAMGWYRQAPGKERELVAAISKSGGSTYYADSVKGRFTISRDNAKNTVYLQMTSLKPEDTAVYYCNRYRFVRQVRGGGLPYDYWGQGTQVTVSS” here?
Answer: high polyreactivity

Question: For “QVQLVESGGGLVQAGCSLRLSCAASGSIFAAYPMGWYRQAPGKERELVAAISRSCGSTYYADSVKGRFTISRDNAKNTVYLQMNSLKPEDTAVYYCAADTYGYRHDNYDYWGQGTQVTVSS”, which “polyreactivity (PSR sort gate)” value is on record?
Answer: low polyreactivity

Question: With “QVQLVESGGGLVQAGGSLRLSCAASGIIFRTNAMGWYRQAPGKERDFVAAISAGGTRTYYADSVKGRFTISRDNAKNTVYLQMNSLKPEDTAVYYCAARYPEYETEDDYWGQGTQVTVSS” as the sequence, how does the “polyreactivity (PSR sort gate)” value read?
Answer: high polyreactivity

Question: Which “polyreactivity (PSR sort gate)” value does the source give for “QVQLVESGGGLVQAGGSLRLSCAASGSNFRYYAMGWYRQAPGTERELVADISSGGSTYYADSVKGRFTISRDNAKNTVYLQMNRLKPEDTAVYYCKADYYAYPWTNDYWGQGTQVTVSS” here?
Answer: high polyreactivity

Question: Which “polyreactivity (PSR sort gate)” value does the source give for “QVHLVESGGGLVQAGGSLRLSCAASGSIFFGYAKGWYRQAPGKERELVAGMDTGGSTDYADSVTGRFTISRDNAKNTVYLQMNSLKPEDTAVYYWATYSYGAVTVDYWGQGTQVTVSS” here?
Answer: low polyreactivity

Question: For “QVQLVASGGGLLQAGGSLRLSCAASGIIFDRYTMGWYRQAPGKERELVASISDDDGSTYYADSVKGRFTISRDNAKNTVYLQMNSLTPEDTAVYYCKALSIIFDYWGQATQVTVSS”, which “polyreactivity (PSR sort gate)” value is on record?
Answer: low polyreactivity

Question: With “QVQLVESGGGLVQAGGSLRLSCAASGGIFYDNAMGWYRQARGKEWELVAAINWSGGSTYYADSVKGRFTISRDNAKNTVYLQMNSLKPDDTAVYYCAASRYFYRTYWNFYGMDYSGQGTQVTVSS” as the sequence, how does the “polyreactivity (PSR sort gate)” value read?
Answer: high polyreactivity

Question: With “QVQLVESGGGLVQAGGSLRLSCAASGRIFYRYAMGWYRQAPGKERELVAAISRNGGSTNYADSVKGRFTISRDNAKNTVYLQMNSLKPEDTAVYYCAARPPTTRPYDYDYWGQGTQVTVSS” as the sequence, how does the “polyreactivity (PSR sort gate)” value read?
Answer: high polyreactivity

Question: With “QDQVVESGGGVVQAGGSLRLICAAYGSTLRYYDMGWYRQAPGKERELVAAISRGCSTYYADSVKGRFTISRDNAKNTVYLLMNSLKPEETAVFYCNKEYPSSYEYDYWGQGTQVTVSS” as the sequence, how does the “polyreactivity (PSR sort gate)” value read?
Answer: low polyreactivity

Question: With “QVHLVESGGGLVQAGGSLRLSCAASGRIFNPNAMGWYRQAPGKERELVAAITSGDSTNYADSVKGRFTISRDNAKNTVYLQMNSLKPEDTAVYYCAADWTYPYNSWGQGTQVTVSS” as the sequence, how does the “polyreactivity (PSR sort gate)” value read?
Answer: low polyreactivity

Question: Which “polyreactivity (PSR sort gate)” value does the source give for “QVQLVESGGGLVQAGGSLRLSCAASGFTFWQYTMGWYRQAPGKERELVAAITSSGGSTYYADSVKGRFTISRDNAKNTVYLQMNSLKPEDTAVYYCAADGWGYSFQWQDHDYWGQGTQVTVSS” here?
Answer: low polyreactivity

Question: For “QVQLVESGGGLVQAGGSLRLSCAASGFTFYLYSMGWYRQAPGKERELVATITSDGGTNYADSVKGRFSISRDNAKNTVYLQMNSLTPEDTAVYYCNAASRRGSRKQAKYDYWGQGTQVTVSA”, which “polyreactivity (PSR sort gate)” value is on record?
Answer: low polyreactivity

Question: Which “polyreactivity (PSR sort gate)” value does the source give for “QDQLGESGGGVVQAGGSLRLSCAAYGRTLHYYAMGWYRQAPGKERELVAGIRDSGGSTYYADSVKGRFTISRDNEMNTVYFLMNSLKPEDTAVYYCAARSHRRLMYYWGQGTQVNVSS” here?
Answer: high polyreactivity

Question: Which “polyreactivity (PSR sort gate)” value does the source give for “QVQLVESGGGLVQAGGSLRLSCAASGSTFNYYAMGWYRQAPGKERELVAAISSRSSRTFYADSVKGRFTISRDNEKNTVYLQMNSLKPEDTAVYYCAVKKRAPDGDYWGQGTQVTVSS” here?
Answer: high polyreactivity
